The test system of assay [1] is FGF2-induced ERK activation in HDLECs. The assay can be described thus: FGF2-induced ERK activation, Western blot of phosphorylated and total ERK. It counts as cell-based, human. As to conditions: HDLECs infected with adenovirus, serum-starved, stimulated with FGF2. As for the experimental part:
Human dermal lymphatic endothelial cells (HDLECs, HMVEC-dLyNeo-Der Lym Endo EGM-2MV) and Pooled human umbilical vein endothelial cells (HUVECs) were purchased from Lonza and cultured in EBM2 basal medium with EGM-2 MV BulletKit. Both cell types were tested negative for mycoplasma in Lonza. Culture medium was changed every the other day. Tissue culture plates were coated with 0.1% gelatin (Sigma) for 30 min at 37° C. and washed with Dulbecco's Phosphate-Buffered Saline (Life Technologies) before cell plating. For siRNA-mediated gene knockdown, FGFR1 siRNA (ON-TARGETplus human FGFR1 siRNA, Dharmacon; Hs_FGFR1_6, Qiagen), FGFR3 siRNA (Hs_FGFR3_6, Qiagen), HK2 siRNA (s6562 human HK2 siRNA, Life Technologies), c-Myc siRNA (ON-TARGETplus human Myc siRNA, Dharmacon), AllStar negative control siRNA (Qiagen), and ON-TARGETplus Non-targeting pool (Dharmacon) were transfected by lipofectamine RNAimax reagent (Life Technologies). Human FGF2 was provided by Kaken Pharmaceutical Co, Ltd (Japan) and ordered from Peprotech. Human VEGFC, VEGFD, IGF1, IGF2 and PDGFBB were purchased from Peprotech. To assay the effect of FGFR1 knockdown on glycolytic enzyme expression, HDLECs, transfected with control or FGFR1 siRNA 3 days in advance, were replated and collected for protein analysis 24 hr later when the cell confluency reached ˜80%. […] ImageJ was used for densitometry quantification of western blot bands. […]

Assay [2] concerns tail skin lymphatic formation. The assay can be described thus: Tail skin lymphatic formation in neonatal mice after adenovirus injection. It counts as in vivo. As to conditions: adenovirus injected into mouse pups at P0 and P1, examined at P6. The source says: Adenovirus encoding GFP, empty CMV vector, sFGFR1-IIIC (Murakami, M. et al., 118, 3355-3366, (2008)), HK2 (Wu, R. et al. Circulation research 108, 60-69, (2011)), or Myc (from Vector Biolabs) for in vitro experiments was amplified in 293A cells according to the user manual of ViraPower™ Adenoviral Expression System (Life Technologies). Virus was tittered using Adeno-X™ Rapid Titer Kit (Clontech Laboratories). For in vivo experiments, LacZ- or sFGFR1-IIIC was amplified and purified at University of North Carolina virus vector core. Neonatal pups were injected i.p. with 5×10^8 FFU of LacZ or sFGFR1-IIIC virus at P0 and P1. Tail skin was harvested at P6 using a method published previously (Xu, Y. et al., J Cell Biol 188, 115-130, (2010)).

Assay [3] relates to HDLECs. Description: Glycolytic flux measurement (5-3H-glucose). The class given is cell-based, human. The protocol: Glycolysis was measured as previously described. Briefly, subconfluent HDLECs cultured in 12-well plates were incubated with 1 ml/well EBM2 medium (containing appropriate amount of serum and supplement) with 80 μCi/mmol 5-^3H-glucose (Perkin Elmer) for 2-3 hr. Then 0.8 ml/well medium was transferred into glass vials with hanging wells and filter papers soaked with H2O. After incubation in a cell culture incubator for at least 2 days to reach saturation, filter papers were taken out and the amount of evaporated ^3H2O was measured in a scintillation counter. Glucose oxidation, glutamine oxidation and fatty acid oxidation were measured essentially as reported. For measurement of glucose uptake, HDLECs were incubated with 2-[1-^14C]-deoxy-D-glucose (2.5 μCi/ml, Perkin Elmer) for 10 min. before PBS washing (at least 3 times to get rid of all radioactive medium) and then lysis with 500 μL 0.1 N NaOH. 400 μl NaOH cell lysate for each sample was transferred to scintillation vials containing scintillation liquid and measured.

For assay [4], the system named is HK2 and other glycolytic enzymes in HDLECs. Description: Western blot of glycolytic enzyme expression in HDLECs. The class given is cell-based, human. As to conditions: protein. As for the experimental part:
Human dermal lymphatic endothelial cells (HDLECs, HMVEC-dLyNeo-Der Lym Endo EGM-2MV) and Pooled human umbilical vein endothelial cells (HUVECs) were purchased from Lonza and cultured in EBM2 basal medium with EGM-2 MV BulletKit. Both cell types were tested negative for mycoplasma in Lonza. Culture medium was changed every the other day. Tissue culture plates were coated with 0.1% gelatin (Sigma) for 30 min at 37° C. and washed with Dulbecco's Phosphate-Buffered Saline (Life Technologies) before cell plating. For siRNA-mediated gene knockdown, FGFR1 siRNA (ON-TARGETplus human FGFR1 siRNA, Dharmacon; Hs_FGFR1_6, Qiagen), FGFR3 siRNA (Hs_FGFR3_6, Qiagen), HK2 siRNA (s6562 human HK2 siRNA, Life Technologies), c-Myc siRNA (ON-TARGETplus human Myc siRNA, Dharmacon), AllStar negative control siRNA (Qiagen), and ON-TARGETplus Non-targeting pool (Dharmacon) were transfected by lipofectamine RNAimax reagent (Life Technologies). Human FGF2 was provided by Kaken Pharmaceutical Co, Ltd (Japan) and ordered from Peprotech. Human VEGFC, VEGFD, IGF1, IGF2 and PDGFBB were purchased from Peprotech. To assay the effect of FGFR1 knockdown on glycolytic enzyme expression, HDLECs, transfected with control or FGFR1 siRNA 3 days in advance, were replated and collected for protein analysis 24 hr later when the cell confluency reached ˜80%. […] ImageJ was used for densitometry quantification of western blot bands.

B1: sFGFR1-IIIC: soluble pan-FGF receptor trap, delivered by adenovirus (protein, UniProt P11362 22-376, looked up)
extracellular domain: RPSPTLPEQAQPWGAPVEVESFLVHPGDLLQLRCRLRDDVQSINWLRDGVQLAESNRTRITGEEVEVQDSVPADSGLYACVTSSPSGSDTTYFSVNVSDALPSSEDDDDDDDSSSEEKETDNTKPNRMPVAPYWTSPEKMEKKLHAVPAAKTVKFKCPSSGTPNPTLRWLKNGKEFKPDHRIGGYKVRYATWSIIMDSVVPSDKGNYTCIVENEYGSINHTYQLDVVERSPHRPILQAGLPANKTVALGSNVEFMCKVYSDPQPHIQWLKHIEVNGSKIGPDNLPYVQILKTAGVNTTDKEMEVLHLRNVSFEDAGEYTCLAGNSIGLSHHSAWLTVLEALEERPAVMTSPLYLE
modifications: extracellular domain IIIc isoform, adenovirus-delivered
On to B1, for which the “FGF2-induced ERK activation” value in assay [1] was “inhibited FGF2-induced ERK activation to the same extent as DN-FGFR1”. Also, the “tail skin lymphatic formation” value in assay [2] is “significant inhibition of tail skin lymphatic formation”.

B2: VEGFD: Human VEGFD growth factor purchased from Peprotech (protein, UniProt O43915 89-205, looked up)
Vascular endothelial growth …: FAATFYDIETLKVIDEEWQRTQCSPRETCVEVASELGKSTNTFFKPPCVNVFRCGGCCNEESLICMNTSTSYISKQLFEISVPLTSVPELVPVKVANHTGCKCLPTAPRHPYSIIRR
Turning to B2, the glycolytic flux result in assay [3] is “no effect”.

B3: PDGFBB: platelet-derived growth factor-BB, purchased from Peprotech (protein, UniProt P01127 82-190, looked up)
Platelet-derived growth …: SLGSLTIAEPAMIAECKTRTEVFEISRRLIDRTNANFLVWPPCVEVQRCSGCCNNRNVQCRPTQVQLRPVQVRKIEIVRKKPIFKKATVTLEDHLACKCETVAAARPVT
B3: in assay [3], the glycolytic flux result was “reduced flux”.

B4: VEGFC: Human VEGFC growth factor purchased from Peprotech (protein, UniProt P49767 112-227, looked up)
Vascular endothelial growth …: AHYNTEILKSIDNEWRKTQCMPREVCIDVGKEFGVATNTFFKPPCVSVYRCGGCCNSEGLQCMNTSTSYLSKTLFEITVPLSQGPKPVTISFANHTSCRCMSKLDVYRQVHSIIRR
As to B4, the glycolytic flux entry in assay [3] was “increased glycolytic flux, albeit to a lesser extent than FGF2”. Moreover, the “glycolytic enzyme (HK2) expression” value in assay [4] is given as “increased HK2 expression without affecting other enzymes”.

(Values after US10450570B2, “Compositions and methods for controlling vasculature” (YALE UNIVERSITY, priority 2016, dated 2019).)
